Data reported in article PMC11417369, “DNA sequence and chromatin differentiate sequence-specific transcription factor binding in the human malaria parasite Plasmodium falciparum”.
Changes are numbered by the printed parent chain.

Target: T1, AP2-HC D1 (Plasmodium falciparum, UniProt Q8IKR9 1316-1374)
T1 sequence: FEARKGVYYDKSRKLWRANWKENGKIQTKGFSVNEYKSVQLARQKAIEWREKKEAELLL
Experiment: gcPBM; about 25 ug protein; PBS, 1% milk, 0.2 mg/ml BSA, salmon testes DNA, 0.03% Triton X-100
Settings: tags: N-terminal GST (pGEX-4T-1), kept; label: surface-attached array probe

B1: CACACA_negctrl_site822 (dsDNA)
DNA 1: TTTTTTCAATAAATAATCGTATATTGAATAATAATA
DNA 2: TATTATTATTCAATATACGATTATTTATTGAAAAAA
B1 was tested, and the binding signal was 9.23 ln median PBM intensity, better of two orientations.

B2: CACACA_negctrl_site1253 (dsDNA)
DNA 1: TAATATTTCGTTAAGTTTTAAAGAAAAAAAAAAAAA
DNA 2: TTTTTTTTTTTTTCTTTAAAACTTAACGAAATATTA
With B2 the binding signal was 9.21 ln median PBM intensity, better of two orientations.

B3: CACACA_negctrl_site1514 (dsDNA)
DNA 1: GAATAAAAAAAAAAAAAAATTTATTTTATAATAAAA
DNA 2: TTTTATTATAAAATAAATTTTTTTTTTTTTTTATTC
B3 was tested, and the binding signal was 9.25 ln median PBM intensity, better of two orientations.

B4: CACACA_negctrl_site856 (dsDNA)
DNA 1: TTTCCTGGTCAAGGGGTTACGGTTACGTCCTCTTGC
DNA 2: GCAAGAGGACGTAACCGTAACCCCTTGACCAGGAAA
B4 was tested, and the binding signal was 9.35 ln median PBM intensity, better of two orientations.

B5: CACACA_negctrl_site758 (dsDNA)
DNA 1: TTTTAAAAAATAAAATATTATTGAAGTAAAATATGA
DNA 2: TCATATTTTACTTCAATAATATTTTATTTTTTAAAA
B5 was tested, and the binding signal was 9.36 ln median PBM intensity, better of two orientations.

B6: CACACA_negctrl_site1196 (dsDNA)
DNA 1: AAAAATTGAATTTTTTTTTTTTTTTTGAGAAGGAAA
DNA 2: TTTCCTTCTCAAAAAAAAAAAAAAAATTCAATTTTT
B6 was tested, and the binding signal was 9.23 ln median PBM intensity, better of two orientations.

B7: CACACA_negctrl_site191 (dsDNA)
DNA 1: TTGTTCATCTTTTTTTTTTTTTTTTTTTTTTAAATC
DNA 2: GATTTAAAAAAAAAAAAAAAAAAAAAAGATGAACAA
With B7 the binding signal was 9.2 ln median PBM intensity, better of two orientations.

B8: CACACA_negctrl_site1319 (dsDNA)
DNA 1: ATTTTTTTTTTTTTTTTTTTTTTTTATGAATGTTAT
DNA 2: ATAACATTCATAAAAAAAAAAAAAAAAAAAAAAAAT
For B8, the binding signal was 9.34 ln median PBM intensity, better of two orientations.

B9: CACACA_negctrl_site488 (dsDNA)
DNA 1: TTTTTAATAAAATGATTGATAATTATTAAATTAAAA
DNA 2: TTTTAATTTAATAATTATCAATCATTTTATTAAAAA
With B9 the binding signal was 9.22 ln median PBM intensity, better of two orientations.

B10: CACACA_negctrl_site19 (dsDNA)
DNA 1: TTAAATTCGTCATTTTAAAATAATACAAAAGTTCAA
DNA 2: TTGAACTTTTGTATTATTTTAAAATGACGAATTTAA
For B10, the binding signal was 9.33 ln median PBM intensity, better of two orientations.

B11: CACACA_negctrl_site1657 (dsDNA)
DNA 1: TATTACATTATTCAAAAAAATTTATATGGTTATAGG
DNA 2: CCTATAACCATATAAATTTTTTTGAATAATGTAATA
B11 was tested, and the binding signal was 9.24 ln median PBM intensity, better of two orientations.

B12: CACACA_negctrl_site1057 (dsDNA)
DNA 1: TGATTTTTTTTTTTTTTTTTTTTTTTTTTAGTTTGC
DNA 2: GCAAACTAAAAAAAAAAAAAAAAAAAAAAAAAATCA
In the case of B12, the binding signal is reported as 9.25 ln median PBM intensity, better of two orientations.

B13: CACACA_negctrl_site1721 (dsDNA)
DNA 1: TTATATTTATATGTAATACAAAATAACAAAAAATTT
DNA 2: AAATTTTTTGTTATTTTGTATTACATATAAATATAA
In the case of B13, the binding signal is reported as 9.33 ln median PBM intensity, better of two orientations.

B14: CACACA_negctrl_site819 (dsDNA)
DNA 1: TGATTATATAAAAAAAAGAAAAAAAAAAAAAAAAAA
DNA 2: TTTTTTTTTTTTTTTTTTCTTTTTTTTATATAATCA
B14 was tested, and the binding signal was 9.07 ln median PBM intensity, better of two orientations.

B15: CACACA_negctrl_site1520 (dsDNA)
DNA 1: TCTTAAATTATGATAAAATATAATAAATAAATAAAT
DNA 2: ATTTATTTATTTATTATATTTTATCATAATTTAAGA
With B15 the binding signal was 9.33 ln median PBM intensity, better of two orientations.

B16: CACACA_negctrl_site1800 (dsDNA)
DNA 1: TTTTAACGTAATTCAAATGAGCAGAATTTTTTAAAA
DNA 2: TTTTAAAAAATTCTGCTCATTTGAATTACGTTAAAA
B16 was tested, and the binding signal was 9.36 ln median PBM intensity, better of two orientations.

B17: CACACA_negctrl_site383 (dsDNA)
DNA 1: GGAACCATCCAAAAAAAAAAAAAAAATAATAATAAT
DNA 2: ATTATTATTATTTTTTTTTTTTTTTTGGATGGTTCC
For B17, the binding signal was 9.18 ln median PBM intensity, better of two orientations.

B18: CACACA_negctrl_site18 (dsDNA)
DNA 1: TTTTTTTTTCTTCTTTTCAAATTTAAGAAATTATAA
DNA 2: TTATAATTTCTTAAATTTGAAAAGAAGAAAAAAAAA
With B18 the binding signal was 9.28 ln median PBM intensity, better of two orientations.

B19: CACACA_negctrl_site1718 (dsDNA)
DNA 1: TTTTTGCAAAAAGAAATAATTTTATTTTAGTTCGGA
DNA 2: TCCGAACTAAAATAAAATTATTTCTTTTTGCAAAAA
B19 was tested, and the binding signal was 9.16 ln median PBM intensity, better of two orientations.

B20: CACACA_negctrl_site1615 (dsDNA)
DNA 1: TTTTTTTGCATGAGCAATAAAAAAGGCTTGTTCAAA
DNA 2: TTTGAACAAGCCTTTTTTATTGCTCATGCAAAAAAA
B20 was tested, and the binding signal was 9.03 ln median PBM intensity, better of two orientations.

B21: CACACA_negctrl_site959 (dsDNA)
DNA 1: ATTTTTTTTTAATGCAAAAGGTGATGATCGGTCATA
DNA 2: TATGACCGATCATCACCTTTTGCATTAAAAAAAAAT
In the case of B21, the binding signal is reported as 9.27 ln median PBM intensity, better of two orientations.

B22: CACACA_negctrl_site1042 (dsDNA)
DNA 1: ATCAAAAAAAAAAAATTTTTTTTTTTGTTTGTTTCC
DNA 2: GGAAACAAACAAAAAAAAAAATTTTTTTTTTTTGAT
B22 was tested, and the binding signal was 9.33 ln median PBM intensity, better of two orientations.

B23: CACACA_negctrl_site1298 (dsDNA)
DNA 1: ATATTATCATTTTTTTTAATGGAAAAAAAAAAAAAA
DNA 2: TTTTTTTTTTTTTTCCATTAAAAAAAATGATAATAT
B23 was tested, and the binding signal was 9.12 ln median PBM intensity, better of two orientations.

B24: CACACA_negctrl_site1361 (dsDNA)
DNA 1: TTAAAATTCAAAAAAAAAAATCAGAATATCAGAAAA
DNA 2: TTTTCTGATATTCTGATTTTTTTTTTTGAATTTTAA
B24 was tested, and the binding signal was 9.36 ln median PBM intensity, better of two orientations.

B25: CACACA_negctrl_site792 (dsDNA)
DNA 1: AAAGAAAAAGAAAAAGAAAAATTAGAATATAAAATA
DNA 2: TATTTTATATTCTAATTTTTCTTTTTCTTTTTCTTT
B25 was tested, and the binding signal was 9.29 ln median PBM intensity, better of two orientations.

B26: CACACA_negctrl_site1530 (dsDNA)
DNA 1: TATTTTGAAATGGAAAGGATATAGAACTTAAACAAA
DNA 2: TTTGTTTAAGTTCTATATCCTTTCCATTTCAAAATA
In the case of B26, the binding signal is reported as 9.32 ln median PBM intensity, better of two orientations.

B27: CACACA_negctrl_site662 (dsDNA)
DNA 1: TTGTATTATATTGTATTATGTTTAAATGAAAAAAAA
DNA 2: TTTTTTTTCATTTAAACATAATACAATATAATACAA
B27 was tested, and the binding signal was 9.32 ln median PBM intensity, better of two orientations.

B28: CACACA_negctrl_site1410 (dsDNA)
DNA 1: TAAAGTACAGGAGTAAATTGAAAAAAAAAAAAAAAA
DNA 2: TTTTTTTTTTTTTTTTCAATTTACTCCTGTACTTTA
In the case of B28, the binding signal is reported as 9.3 ln median PBM intensity, better of two orientations.

B29: CACACA_negctrl_site292 (dsDNA)
DNA 1: AAAAAAAAAAAAAAAAAAAAAAAAAAAAAAAAAAAG
DNA 2: CTTTTTTTTTTTTTTTTTTTTTTTTTTTTTTTTTTT
With B29 the binding signal was 9.04 ln median PBM intensity, better of two orientations.

B30: CACACA_negctrl_site59 (dsDNA)
DNA 1: B29 DNA 1 with A30T, G36A
DNA 2: B29 DNA 2 with C1T, T7A
In the case of B30, the binding signal is reported as 9.2 ln median PBM intensity, better of two orientations.

B31: CACACA_negctrl_site1364 (dsDNA)
DNA 1: B29 DNA 2 with C1A
DNA 2: B29 DNA 1 with G36T
In the case of B31, the binding signal is reported as 9.34 ln median PBM intensity, better of two orientations.

B32: CACACA_negctrl_site1716 (dsDNA)
DNA 1: TTTATAGTTTTAAACAAAGTAATACAAATGTATATA
DNA 2: TATATACATTTGTATTACTTTGTTTAAAACTATAAA
With B32 the binding signal was 9.34 ln median PBM intensity, better of two orientations.

B33: CACACA_negctrl_site388 (dsDNA)
DNA 1: TTATTTAAAATTTTTATGCGTATATATATAGGAACA
DNA 2: TGTTCCTATATATATACGCATAAAAATTTTAAATAA
In the case of B33, the binding signal is reported as 9.3 ln median PBM intensity, better of two orientations.

B34: CACACA_negctrl_site1226 (dsDNA)
DNA 1: TGTTATTTAAATAATTCTTTTTAAAAGATGAATTAT
DNA 2: ATAATTCATCTTTTAAAAAGAATTATTTAAATAACA
B34 was tested, and the binding signal was 9.21 ln median PBM intensity, better of two orientations.

B35: CACACA_negctrl_site980 (dsDNA)
DNA 1: ATTTTTAAGCATATCAAAAAAAAAAAAAAAATTAAT
DNA 2: ATTAATTTTTTTTTTTTTTTTGATATGCTTAAAAAT
B35 was tested, and the binding signal was 9.35 ln median PBM intensity, better of two orientations.

B36: CACACA_negctrl_site1570 (dsDNA)
DNA 1: TTTTTTTTTTTTTTTTTTTTTTTTTTTTTTTGGGGG
DNA 2: CCCCCAAAAAAAAAAAAAAAAAAAAAAAAAAAAAAA
With B36 the binding signal was 9.36 ln median PBM intensity, better of two orientations.

B37: CACACA_negctrl_site643 (dsDNA)
DNA 1: TTTTAAAAAATATAATAATATAAATATGTTTTATAC
DNA 2: GTATAAAACATATTTATATTATTATATTTTTTAAAA
B37 was tested, and the binding signal was 9.34 ln median PBM intensity, better of two orientations.

B38: CACACA_negctrl_site1354 (dsDNA)
DNA 1: TCTTTTTTTTCTTTTTTTTTATTTAAATATCAAGTA
DNA 2: TACTTGATATTTAAATAAAAAAAAAGAAAAAAAAGA
With B38 the binding signal was 9.2 ln median PBM intensity, better of two orientations.

B39: CACACA_negctrl_site718 (dsDNA)
DNA 1: TATAACATTTTTTTCAAAATAGCTTTAGAAATAAAG
DNA 2: CTTTATTTCTAAAGCTATTTTGAAAAAAATGTTATA
B39 was tested, and the binding signal was 9.31 ln median PBM intensity, better of two orientations.

B40: CACACA_negctrl_site34 (dsDNA)
DNA 1: TTATGTATATTATAAATTAATACATTTAAATTAATA
DNA 2: TATTAATTTAAATGTATTAATTTATAATATACATAA
In the case of B40, the binding signal is reported as 9.28 ln median PBM intensity, better of two orientations.

B41: CACACA_negctrl_site452 (dsDNA)
DNA 1: AATATATGATAATTTTTTTTTTTTTTTTTTAAATAT
DNA 2: ATATTTAAAAAAAAAAAAAAAAAATTATCATATATT
For B41, the binding signal was 9.23 ln median PBM intensity, better of two orientations.

B42: CACACA_negctrl_site1293 (dsDNA)
DNA 1: TCATATTCCAAAAAAAAAAAAAAAAAAAAAAAAATA
DNA 2: TATTTTTTTTTTTTTTTTTTTTTTTTTGGAATATGA
In the case of B42, the binding signal is reported as 9.15 ln median PBM intensity, better of two orientations.

B43: CACACA_negctrl_site1113 (dsDNA)
DNA 1: TTTTTTTTTAAAGAAAATAAAAATATGTACTTGACA
DNA 2: TGTCAAGTACATATTTTTATTTTCTTTAAAAAAAAA
For B43, the binding signal was 9.17 ln median PBM intensity, better of two orientations.

B44: CACACA_negctrl_site1097 (dsDNA)
DNA 1: ATATTTTTAGGTGATTATTATTCGGAGAAGCGAATT
DNA 2: AATTCGCTTCTCCGAATAATAATCACCTAAAAATAT
In the case of B44, the binding signal is reported as 9.32 ln median PBM intensity, better of two orientations.
